Tested on: PE6 (Mycobacterium tuberculosis)
Details: 10 mM Tris-HCl pH 7.4, 100 mM NaCl, 298 K (fluorescence titration)

Q: With dsDNA (unspecified) as the substance, how does the Kd read?
A: 1400 nM

From PMC8311496
